The values below come from the supplement of paper PMC10567573.

A short description of the series: protein stability index of a GFP-peptide fusion (GPS, HEK-293T) (PSI 1-6); higher = more stable. Particulars: c terminus: a fixed tail appended.

± gives the standard deviation.
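Note: 24-mer peptide tiles fused after GFP, lentivirally expressed, FACS-sorted into six equal bins by GFP/DsRed ratio, decoded by Illumina sequencing, PSI is the read-weighted mean bin number.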

For LGSSAASTALERPSFLSQTGHGVS [FCHO1], the protein stability index is 4.28 ± 0.45 (treatment: DMSO) and 4.2 ± 0.24 (treatment: MLN4924 1 uM, 8 h).
Take LGWNSTERSLRLQARYHDTPYKPP [MYORG]: the protein stability index is, setting by setting: (treatment: DMSO) 2.88 ± 0.3; (treatment: MLN4924 1 uM, 8 h) 3.2 ± 0.22.
For LGYAVSTFAMVKGYFFPTSARDCK [DHCR7], in that order: 2.09 ± 0.11 and 2.09 ± 0.13.
LHEEEHVLLMAICIVSPDRPGVQD [VDR]: the protein stability index worked out at 2.44 ± 0.29 (treatment: DMSO) and 2.24 ± 0.25 (treatment: MLN4924 1 uM, 8 h).
For LIALANRFCLPHLVALAEQHAVQE [RHOBTB1], the protein stability index was 3.16 ± 0.47 (treatment: DMSO) and 3.33 ± 0.47 (treatment: MLN4924 1 uM, 8 h).
For LIKTIETRNGEVVTESQKEQRSEL [PRPH], the protein stability index was determined as 4.91 ± 0.52 (treatment: DMSO) and 4.67 ± 0.53 (treatment: MLN4924 1 uM, 8 h).
For LINTSDTVQHGAVYSLEPRLCGGK [SDE2], in that order: 3.97 ± 0.43 and 3.97 ± 0.33.
Taken in the same sequence, the figures for LIPQPLDSEEDEKMEEDIKEEEEK [PCMTD1] were 5.66 ± 0.23 and 5.67 ± 0.22.
On to LIQNGGEIDCVDKDGNTPLHVAAR [ANKRD44], for which the protein stability index amounted to 4.32 ± 0.087 (treatment: DMSO) and 4.53 ± 0.16 (treatment: MLN4924 1 uM, 8 h).
Regarding LIYGSMEMFPAAQQLYRHGKAYRF [JAGN1], the protein stability index runs as follows: (treatment: DMSO) 2.28 ± 0.36; (treatment: MLN4924 1 uM, 8 h) 2.21 ± 0.093.
For the sequence LKGARLTVEQGCQILDSLSYMRNE [FBXO39], the protein stability index by setting is: (treatment: DMSO) 2.68 ± 0.35; (treatment: MLN4924 1 uM, 8 h) 2.85 ± 0.38.
For LKPFFMKEVGSHFDDFVTNLIEKS [SOAT1], in that order: 2.48 ± 0.32 and 2.88 ± 0.13.
Consider LKVKCLNNLAASQLKLDHYRAALR [FKBP8], for which the protein stability index reads like this: (treatment: DMSO) 2.28 ± 0.31; (treatment: MLN4924 1 uM, 8 h) 2.19 ± 0.47.
As to LLADVKGARAALNEIESRHRELLR [STX11], the protein stability index reads like this: (treatment: DMSO) 3.03 ± 0.23; (treatment: MLN4924 1 uM, 8 h) 3.3 ± 0.41.
On to LLDALSPEQLVLTLLEAEPPHVLI [ESR2], for which the protein stability index is, setting by setting: (treatment: DMSO) 2.55 ± 0.57; (treatment: MLN4924 1 uM, 8 h) 2.08 ± 0.18.
For LLDELMGRDRNLAPDEKRSNVRWD [LUC7L3], in that order: 3.59 ± 0.21 and 3.64 ± 0.19.
As to LLEDARRKGMPFAQWDGPTVVSWL [PPFIA4], the protein stability index reads like this: (treatment: DMSO) 2.11 ± 0.15; (treatment: MLN4924 1 uM, 8 h) 2.01 ± 0.33.
Taken in the same sequence, the figures for LLEKVPCTLEQDHFKKQTIYRFLK [FEM1C] were 2.38 ± 0.83 and 2.31 ± 0.23.
Turning to LLFSLTQFSVVSVVAYLALAALSA [RTN1], the protein stability index is, setting by setting: (treatment: DMSO) 3.4 ± 0.54; (treatment: MLN4924 1 uM, 8 h) 3.24 ± 0.058.
In turn, LLKPHSYGRFIRWLNKEKGIFKIE [SPDEF] showed a protein stability index (treatment: DMSO) of 2.49 ± 0.66 and a protein stability index (treatment: MLN4924 1 uM, 8 h) of 2.4 ± 0.46.
In the case of LLKRMESLKLKSSHHSKHKAPSKL [DLC1], the protein stability index was 3.03 ± 0.36 (treatment: DMSO) and 3.1 ± 0.51 (treatment: MLN4924 1 uM, 8 h).
For LLLASGLVITDFFGHLINGAIAVF [PTGFR], the protein stability index came to 3.29 ± 0.72 (treatment: DMSO) and 3.19 ± 0.86 (treatment: MLN4924 1 uM, 8 h).
Taken in the same sequence, the figures for LLLLYFMQVIAIVLYLMMPIVNIS [PHTF1] were 3.15 ± 0.42 and 3.06 ± 0.52.
Taken in the same sequence, the figures for LLPVQVVTEHPLELIRVEVEILDL [PCDHGC5] were 3.02 ± 0.66 and 3.05 ± 0.85.
For LLQNEFVGFMWRQRGRVISLWERL [MCOLN1], in that order: 2.7 ± 0.19 and 2.68 ± 0.26.
LLRHQRIHTGERPYKCPECGKSFS [ZNF263]: the protein stability index amounted to 2.71 ± 0.47 (treatment: DMSO) and 3.58 ± 0.47 (treatment: MLN4924 1 uM, 8 h).
For the sequence LLSILPSLLGLLSFPRNNISYLVL [JAGN1], the protein stability index runs as follows: (treatment: DMSO) 3.155 ± 0.027; (treatment: MLN4924 1 uM, 8 h) 3.1 ± 0.43.
For LLTFQQITTVSKAKGASLFTCDLQ [VPS39], in that order: 2.14 ± 0.2 and 2.07 ± 0.27.
Consider LMADKVLRWERAWFPPAIMGVVSL [ARL6IP1], for which the protein stability index was 3.13 ± 0.66 (treatment: DMSO) and 2.45 ± 0.86 (treatment: MLN4924 1 uM, 8 h).
